The numbers were not newly measured in US20260263505A1, “Uses of Compositions Comprising a Prebiotic Component” (Mead Johnson Nutrition Company, priority 2021, published 2026), which cites them from elsewhere.

In the data set the test system is Rats. The settings on record: after four weeks of diet, acute inescapable stressor.

B1: lactoferrin: multifunctional iron-binding glycoprotein naturally present in milk; test diet of Mika et al. (protein, UniProt P24627 20-708, looked up)
Lactotransferrin: APRKNVRWCTISQPEWFKCRRWQWRMKKLGAPSITCVRRAFALECIRAIAEKKADAVTLDGGMVFEAGRDPYKLRPVAAEIYGTKESPQTHYYAVAVVKKGSNFQLDQLQGRKSCHTGLGRSAGWIIPMGILRPYLSWTESLEPLQGAVAKFFSASCVPCIDRQAYPNLCQLCKGEGENQCACSSREPYFGYSGAFKCLQDGAGDVAFVKETTVFENLPEKADRDQYELLCLNNSRAPVDAFKECHLAQVPSHAVVARSVDGKEDLIWKLLSKAQEKFGKNKSRSFQLFGSPPGQRDLLFKDSALGFLRIPSKVDSALYLGSRYLTTLKNLRETAEEVKARYTRVVWCAVGPEEQKKCQQWSQQSGQNVTCATASTTDDCIVLVLKGEADALNLDGGYIYTAGKCGLVPVLAENRKSSKHSSLDCVLRPTEGYLAVAVVKKANEGLTWNSLKDKKSCHTAVDRTAGWNIPMGLIVNQTGSCAFDEFFSQSCAPGADPKSRLCALCAGDDQGLDKCVPNSKEKYYGYTGAFRCLAEDVGDVAFVKNDTVWENTNGESTADWAKNLNREDFRLLCLDGTRKPVTEAQSCHLAVAPNHAVVSRSDRAAHVKQVLLHQQALFGKNGKNCPDKFCLFKSETKNLLFNDNTECLAKLGGRPTYEEYLGTEYVTAIANLKKCSTSPLLEACAFLTR
For the molecule B1, the “stress-evoked cfos mRNA in the dorsal raphe nucleus” value is recorded as “reduce”.
